Measured values published in patent US20210062263A1, “A CLINICAL […]” (priority 2016, published 2021).
Entries after “also recorded” stand apart in the source; their conditions may differ.

What was measured:
Type in all cases: cell-based, human
[1] = tested on: keloid fibroblasts; experiment: qRT-PCR relative gene expression in keloid fibroblasts
Experimental: (§1) Normal and keloid tissue samples were collected from 11 patients and were used to establish primary fibroblast cultures. Using these fibroblasts, qRT-PCR for relative gene expressions and enzyme-linked immunosorbent assay (ELISA) for relative protein expressions were performed. Fibroblasts were also treated with 200 pM activin for 24 hours to examine the effects on fibrosis-related genes.
(§2) Normal and keloid tissue samples were collected from 11 patients and used to establish primary fibroblast cell cultures as described in Example 1. Relative expressions of fibrosis-related genes were examined using qRT-PCR. Protein levels of activin and follistatin, an activin-antagonist, were also measured by ELISA and radioimmunoassay in lysates of dermal fibroblasts. Furthermore, keloid fibroblasts were treated with 1 nM follistatin for 24 hours to examine the effects on fibrosis-related genes.
(§3) Normal and keloid fibroblasts were isolated and cultured from a patient. Relative expressions of fibrosis-related genes were examined using qRT-PCR. Protein levels of activin and follistatin were also measured by ELISA and radioimmunoassay in dermal fibroblasts as described in Example 2. Furthermore, keloid fibroblasts were daily treated with 1 nM follistatin for 1, 3 and 5 days to examine the effects on fibrosis-related genes.
(§4) Normal and keloid fibroblasts were isolated and cultured in vitro using standard fibroblast cell culture protocols. Relative gene expressions were examined using qRT-PCR. Protein levels of activin and follistatin were also measured in dermal fibroblasts by enzyme-linked immunosorbent assay and radioimmunoassay respectively. Cells were also treated with 100 ng/ml follistatin for 5 days to examine the effects on the expression of fibrosis-related genes.
(§5) The upregulation of CTGF by activin A was also confirmed in the multiple patient samples (FIG. 8n).
(§6) To investigate the role of AP1 in keloid pathogenesis, fibroblasts were treated for 3 days with SR11302, an inhibitor of AP1 activity. […] Moreover, in order to examine the effects of FST288, fibroblasts were treated for 3 days or 5 days.

[2] = tested on: normal fibroblasts; experiment: qRT-PCR relative gene expression in normal fibroblasts
Experimental: as §1, §2, §3, §4, §5, §6

[3] = tested on: keloid fibroblasts; experiment: Activin A protein in cell lysate and media of keloid fibroblasts; conditions: after treatment with AP1 inhibitor
Experimental: as §1, §4, §6

[4] = tested on: normal fibroblasts; experiment: Activin A protein in cell lysate and media of normal fibroblasts; conditions: after treatment with AP1 inhibitor
Experimental: as §1, §4, §6

[5] = tested on: keloid fibroblasts; experiment: Tolerance of keloid fibroblasts in culture (cell death); conditions: 3 days
Experimental: as §6

[6] = tested on: normal fibroblasts; experiment: Tolerance of normal fibroblasts in culture (cell death); conditions: 3 days
Experimental: as §6

[7] = tested on: keloid fibroblasts; experiment: RNA sequencing of keloid fibroblast cultures with/without follistatin; conditions: single follistatin treatment
Experimental: RNAseq was performed with/without a single follistatin treatment on normal and keloid fibroblast cultures on day 1 and day 5 (FIG. 7) to compare the extent of gene expression changes in keloid disease.

[8] = SR11302 10 uM and 15 uM, 3 days
[9] = daily 1 nM follistatin, five days

## CC1=C(/C=C/C(=C/C=C/C(C)=C/C(=O)O)c2ccc(C)cc2)C(C)(C)CCC1 [SR11302]
[1]; [8]
  CTGF gene expression: significantly decreased
  INHBA gene expression: significantly decreased
[2]; [8]
  CTGF gene expression: significantly decreased
  INHBA gene expression: significantly decreased
[3]
  activin A protein in cell lysate and media: significantly decreased
[4]
  activin A protein in cell lysate and media: significantly decreased
[5]
  doses resulting in cell death: higher than 20 uM
[6]
  doses resulting in cell death: higher than 20 uM

B1: follistatin: an activin-antagonist protein; isoform not stated in these examples (protein, UniProt P19883 30-344, looked up)
Follistatin: GNCWLRQAKNGRCQVLYKTELSKEECCSTGRLSTSWTEEDVNDNTLFKWMIFNGGAPNCIPCKETCENVDCGPGKKCRMNKKNKPRCVCAPDCSNITWKGPVCGLDGKTYRNECALLKARCKEQPELEVQYQGRCKKTCRDVFCPGSSTCVVDQTNNAYCVTCNRICPEPASSEQYLCGNDGVTYSSACHLRKATCLLGRSIGLAYEGKCIKAKSCEDIQCTGGKKCLWDFKVGRGRCSLCDELCPDSKSDEPVCASDNATYASECAMKEAACSSGVLLEVKHSGSCNSISEDTEEEEEDEDQDYSFPISSILEW
[1]; 1 nM follistatin, 24 hours
  CTGF gene expression: significantly decreased
  activin A gene expression: significantly decreased
[1]; 100 ng/ml follistatin, vs controls
  CTGF (downstream target of activins) expression: declined significantly
[1]; after treatment with follistatin (summary of Examples 1 to 3)
  activin A expression of the gene and its protein: significant downregulation
[1]; [9]
  CTGF gene expression: significantly decreased
  activin A gene expression: significantly decreased
[1]; single treatment, 100 ng/ml follistatin
  activin A gene expression: significantly decreased
[7]; 5 days, 100 ng/ml
  INHBA expression (RNAseq): diminished
[7]; day 5, 100 ng/ml
  CTGF expression (RNAseq): significantly decreased
  PAI1 expression (RNAseq): significantly decreased
  other matrix related genes (RNAseq): downregulated

B2: activin A: dimeric protein of the TGF-β superfamily, added exogenously at 200 pM (protein, UniProt P08476 311-426, looked up)
Inhibin beta A chain: GLECDGKVNICCKKQFFVSFKDIGWNDWIIAPSGYHANYCEGECPSHIAGTSGSSLSFHSTVINHYRMRGHSPFANLKSCCVPTKLRPMSMLYYDDGQNIIKKDIQNMIVEECGCS
modifications: Inhibin beta A chain homodimer
notes: dimeric protein of the TGF-β superfamily, added exogenously at 200 pM
[1]; 200 pM activin A, 24 hours
  CTGF gene expression: significantly upregulated
  FOSB gene expression: significantly upregulated
  IL6 gene expression: significantly upregulated
  INHBA (activin A) gene expression: further significant upregulation; also recorded: significantly upregulated
  JUNB gene expression: significantly upregulated
  PAI1 gene expression: significantly upregulated
  TGFB2 gene expression: significantly upregulated
[1]; 200 pM activin A, multiple patient samples (normal/keloid not distinguished)
  CTGF expression in fibroblasts from multiple patients: upregulation; also recorded: increased
[2]; 200 pM activin A, 24 hours
  CTGF gene expression: significantly upregulated
  FOSB gene expression: significantly upregulated
  IL6 gene expression: significantly upregulated
  INHBA (activin A) gene expression: significantly upregulated
  JUNB gene expression: significantly upregulated
  PAI1 gene expression: significantly upregulated
  TGFB2 gene expression: significantly upregulated
